# Results as given in article PMC12554172, “Systematic analysis of the RGS2 degron reveals characteristics of substrate recognition by the F-box protein FBXO44” (The Journal of Biological Chemistry, 2025).
# Target: T1, FBXO44^FBA (Homo sapiens, UniProt Q9H4M3)
# T1 construct: we expressed and purified only this domain for all in vitro studies; 6xHis (N, cleaved yes); MBP (N, cleaved yes); made in house; host or cells: Escherichia coli Rosetta BL21 (λDE3)
# T1 sequence (Q9H4M3 71-252 limits assumed): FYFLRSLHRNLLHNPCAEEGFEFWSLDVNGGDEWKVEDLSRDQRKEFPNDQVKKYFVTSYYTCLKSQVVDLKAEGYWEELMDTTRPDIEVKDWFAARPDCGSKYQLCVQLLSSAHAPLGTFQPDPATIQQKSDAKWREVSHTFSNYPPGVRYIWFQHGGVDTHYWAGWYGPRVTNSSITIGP
# Assay: Peptide microarray (PEPperPRINT), FLAG-FBXO44^FBA binding
# Details: 2 μg/ml FBXO44^FBA overnight at 4 °C; for Mean % difference from parent peptide (FLAG immunoreactivity): Table S1, RGS2^5–16 single-residue substitution, PBS 0.005% Tween pH 7.4, anti-FLAG DyLight800 fluorescence, three independent experiments with three technical replicates each
# Source text: To do so, we utilized a custom peptide microarray (PEPperPRINT GmbH). The design of this array was twofold: (1) substitution at each position with every other natural eukaryotic amino acid; (2) truncation of the peptide from the C terminus. We assessed the binding of FLAG-FBXO44^FBA to the array utilizing fluorescence immunoreactivity corresponding to the amount of FLAG-FBXO44^FBA bound. […] Substitutions at Asp^12 were not only tolerated but also seemed to improve binding in every case (Fig. 3B). This, combined with the fact that substituting any residue in His^11–Met^16 with Arg, and in most cases with Lys, improved FBXO44^FBA binding, indicating the presence of negative charges at the binding interface.
# Figure 2 Systematic mutation of the RGS2 degron alters FBXO44^FBA binding. A custom microarray (PEPperPRINT) was designed where each position of the RGS2^5–16 peptide was substituted for each natural amino acid. We also included truncated peptides on the array. This was incubated with purified FBXO44^FBA and probed with α-FLAG. A, a representative scan of a peptide microarray (top) and a truncated peptide (bottom). B, heatmap of mean fluorescence of quantified microarray scans. The scale represents the mean fluorescence in percentage points across all replicates, normalized to the signal obtained with the original residue at each position. C, heatmap of standard deviation of quantified microarray scans. The scale represents the standard deviation in percentage points across all replicates. […] Residues are color-coded based on properties: blue, positive charge; red, negative charge; orange, uncharged polar; green, hydrophobic; yellow, Cys (C); bright green, Pro (P); and black, Gly (G). […] Results of three independent experiments with three technical replicates each. For a statistical significance summary, see Table S1. FBXO44, F-box only protein 44; RGS2, regulator of G protein signaling 2.
# Figure 3 Effects of RGS2^5–16 peptide residue changes on FBXO44^FBA binding. Data are presented as % FLAG immunoreactivity, as compared with the parent peptide residue. […] The original residue is marked in each graph with a vertical dotted line. Boxes extend from the 25th to 75th percentile with a line marking the median. Whiskers extend to the minimum and maximum. Results of three independent experiments with three technical replicates each. Data were analyzed by two-way ANOVA, with Tukey's post hoc test for pairwise comparison (simple effect within columns). Statistical significance is summarized in Table S1 and color-coded according to the legend. FBXO44, F-box only protein 44; RGS2, regulator of G protein signaling 2.
# The microarray slide was seated into the incubation tray according to PEPperPRINT's instructions. The array well was then incubated in washing buffer (PBS) with 0.005% Tween (Sigma; P1379, pH 7.4) at room temperature for 15 min on an orbital shaker. Washing buffer was aspirated, and the array was then incubated with Rockland blocking buffer at room temperature for 30 min on an orbital shaker. Blocking buffer was then aspirated, and the array was incubated in staining buffer (washing buffer with 10% Rockland blocking buffer) at room temperature for 15 min on an orbital shaker. Staining buffer was aspirated, and purified FBXO44 FBA domain diluted to 2 μg/ml in staining buffer was added. The array was then placed on an orbital shaker overnight at 4 °C. The FBA domain solution was removed, and an array was washed three times with washing buffer. After the third array was incubated in staining buffer for 15 min at 4 °C on an orbital shaker. The array was then incubated with antibody dilution (anti-FLAG DyLight800 and anti-HA DyLight680, both diluted 1:2000 in staining buffer) for 45 min at 4° C on an orbital shaker. The array was then washed three times with washing buffer. […]
substance,measurement,setting,value
"M16C: array RGS2^5–16 peptide, M16 substituted by C",Mean % difference from parent peptide (FLAG immunoreactivity),,30.03%
"C13S: array RGS2^5–16 peptide, C13 substituted by S (MFLAVQHDSRPM; UniProt P41220 5-16, looked up, variant C13S)",Mean % difference from parent peptide (FLAG immunoreactivity),,-87.05%
"C13T: array RGS2^5–16 peptide, C13 substituted by T",Mean % difference from parent peptide (FLAG immunoreactivity),,-86.63%
"D12T: array RGS2^5–16 peptide, D12 substituted by T (MFLAVQHTCRPM; UniProt P41220 5-16, looked up, variant D12T)",Mean % difference from parent peptide (FLAG immunoreactivity),,32.23%
"C13A: array RGS2^5–16 peptide, C13 substituted by A (MFLAVQHDARPM; UniProt P41220 5-16, looked up, variant C13A)",Mean % difference from parent peptide (FLAG immunoreactivity),,-72.59%
"C13M: array RGS2^5–16 peptide, C13 substituted by M (MFLAVQHDMRPM; UniProt P41220 5-16, looked up, variant C13M)",Mean % difference from parent peptide (FLAG immunoreactivity),,-88.01%
"D12P: array RGS2^5–16 peptide, D12 substituted by P (MFLAVQHPCRPM; UniProt P41220 5-16, looked up, variant D12P)",Mean % difference from parent peptide (FLAG immunoreactivity),,66.54%
"D12C: array RGS2^5–16 peptide, D12 substituted by C",Mean % difference from parent peptide (FLAG immunoreactivity),,43.97%
"C13F: array RGS2^5–16 peptide, C13 substituted by F (MFLAVQHDFRPM; UniProt P41220 5-16, looked up, variant C13F)",Mean % difference from parent peptide (FLAG immunoreactivity),,-82.91%
"D12I: array RGS2^5–16 peptide, D12 substituted by I (MFLAVQHICRPM; UniProt P41220 5-16, looked up, variant D12I)",Mean % difference from parent peptide (FLAG immunoreactivity),,42.93%
"C13L: array RGS2^5–16 peptide, C13 substituted by L (MFLAVQHDLRPM; UniProt P41220 5-16, looked up, variant C13L)",Mean % difference from parent peptide (FLAG immunoreactivity),,-88.83%
"D12K: array RGS2^5–16 peptide, D12 substituted by K (MFLAVQHKCRPM; UniProt P41220 5-16, looked up, variant D12K)",Mean % difference from parent peptide (FLAG immunoreactivity),,124.2%
"M16D: array RGS2^5–16 peptide, M16 substituted by D (MFLAVQHDCRPD; UniProt P41220 5-16, looked up, variant M16D)",Mean % difference from parent peptide (FLAG immunoreactivity),,31.28%
"M16G: array RGS2^5–16 peptide, M16 substituted by G (MFLAVQHDCRPG; UniProt P41220 5-16, looked up, variant M16G)",Mean % difference from parent peptide (FLAG immunoreactivity),,-27.86%
"D12S: array RGS2^5–16 peptide, D12 substituted by S (MFLAVQHSCRPM; UniProt P41220 5-16, looked up, variant D12S)",Mean % difference from parent peptide (FLAG immunoreactivity),,59.59%
"C13K: array RGS2^5–16 peptide, C13 substituted by K (MFLAVQHDKRPM; UniProt P41220 5-16, looked up, variant C13K)",Mean % difference from parent peptide (FLAG immunoreactivity),,-53.92%
"C13I: array RGS2^5–16 peptide, C13 substituted by I (MFLAVQHDIRPM; UniProt P41220 5-16, looked up, variant C13I)",Mean % difference from parent peptide (FLAG immunoreactivity),,-87.24%
"C13G: array RGS2^5–16 peptide, C13 substituted by G (MFLAVQHDGRPM; UniProt P41220 5-16, looked up, variant C13G)",Mean % difference from parent peptide (FLAG immunoreactivity),,-89.67%
"C13W: array RGS2^5–16 peptide, C13 substituted by W (MFLAVQHDWRPM; UniProt P41220 5-16, looked up, variant C13W)",Mean % difference from parent peptide (FLAG immunoreactivity),,-46.69%
"C13P: array RGS2^5–16 peptide, C13 substituted by P (MFLAVQHDPRPM; UniProt P41220 5-16, looked up, variant C13P)",Mean % difference from parent peptide (FLAG immunoreactivity),,-84.68%
"C13N: array RGS2^5–16 peptide, C13 substituted by N (MFLAVQHDNRPM; UniProt P41220 5-16, looked up, variant C13N)",Mean % difference from parent peptide (FLAG immunoreactivity),,-85.38%
"M16R: array RGS2^5–16 peptide, M16 substituted by R (MFLAVQHDCRPR; UniProt P41220 5-16, looked up, variant M16R)",Mean % difference from parent peptide (FLAG immunoreactivity),,101.4%
"C13D: array RGS2^5–16 peptide, C13 substituted by D (MFLAVQHDDRPM; UniProt P41220 5-16, looked up, variant C13D)",Mean % difference from parent peptide (FLAG immunoreactivity),,-75.39%
"C13V: array RGS2^5–16 peptide, C13 substituted by V (MFLAVQHDVRPM; UniProt P41220 5-16, looked up, variant C13V)",Mean % difference from parent peptide (FLAG immunoreactivity),,-88.12%
"D12Q: array RGS2^5–16 peptide, D12 substituted by Q (MFLAVQHQCRPM; UniProt P41220 5-16, looked up, variant D12Q)",Mean % difference from parent peptide (FLAG immunoreactivity),,59.62%
"C13H: array RGS2^5–16 peptide, C13 substituted by H (MFLAVQHDHRPM; UniProt P41220 5-16, looked up, variant C13H)",Mean % difference from parent peptide (FLAG immunoreactivity),,-83.62%
"D12M: array RGS2^5–16 peptide, D12 substituted by M (MFLAVQHMCRPM; UniProt P41220 5-16, looked up, variant D12M)",Mean % difference from parent peptide (FLAG immunoreactivity),,42.32%
"D12L: array RGS2^5–16 peptide, D12 substituted by L (MFLAVQHLCRPM; UniProt P41220 5-16, looked up, variant D12L)",Mean % difference from parent peptide (FLAG immunoreactivity),,31.38%
"P15A: array RGS2^5–16 peptide, P15 substituted by A",Mean % difference from parent peptide (FLAG immunoreactivity),,-27.06%
"C13E: array RGS2^5–16 peptide, C13 substituted by E (MFLAVQHDERPM; UniProt P41220 5-16, looked up, variant C13E)",Mean % difference from parent peptide (FLAG immunoreactivity),,-87.12%
"R14A: array RGS2^5–16 peptide, R14 substituted by A (MFLAVQHDCAPM)",Mean % difference from parent peptide (FLAG immunoreactivity),,-27.71%
same,FBXO44^FBA binding in peptide microarray (in words),"versus parent RGS2^5–16 peptide, fluorescence","modest effects, with only one or two substitutions for each reaching significance"
"D12W: array RGS2^5–16 peptide, D12 substituted by W (MFLAVQHWCRPM; UniProt P41220 5-16, looked up, variant D12W)",Mean % difference from parent peptide (FLAG immunoreactivity),,48.95%
"C13R: array RGS2^5–16 peptide, C13 substituted by R (MFLAVQHDRRPM; UniProt P41220 5-16, looked up, variant C13R)",Mean % difference from parent peptide (FLAG immunoreactivity),,35.61%
"C13Y: array RGS2^5–16 peptide, C13 substituted by Y (MFLAVQHDYRPM; UniProt P41220 5-16, looked up, variant C13Y)",Mean % difference from parent peptide (FLAG immunoreactivity),,-42.98%
